Measurements published in patent publication US20110097323A1.

What was measured:
CD16A F158 (human) = CD16A F158 (human) (UniProt P08637); assay: Table 3; relative to wild-type Fc; method not stated
CD32B (FcγRII-B) = CD32B (FcγRII-B) (UniProt P31994); assay: as above
CD16A V158 (human) = CD16A V158 (human) (UniProt P08637); assay: as above
HER-2 = HER-2 (UniProt P04626); assay: SPR (BIAcore 1000), HER-2 amine-coupled to chip, antibody injected at 6.25-200 nM

Chain of CD16A F158 (human) (P08637 17-208 limits assumed): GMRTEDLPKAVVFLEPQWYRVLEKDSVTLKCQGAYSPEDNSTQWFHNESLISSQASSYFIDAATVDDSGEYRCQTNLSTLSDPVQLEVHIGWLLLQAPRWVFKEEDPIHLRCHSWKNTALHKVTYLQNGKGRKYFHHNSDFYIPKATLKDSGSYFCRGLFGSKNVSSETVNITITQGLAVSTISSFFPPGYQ
Chain of CD32B (FcγRII-B) (P31994 43-217 limits assumed): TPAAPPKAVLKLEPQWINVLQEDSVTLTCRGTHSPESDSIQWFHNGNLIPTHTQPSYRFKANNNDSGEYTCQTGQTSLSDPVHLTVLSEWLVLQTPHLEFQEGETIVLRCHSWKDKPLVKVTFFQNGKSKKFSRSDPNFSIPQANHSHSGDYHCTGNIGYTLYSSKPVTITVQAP
Chain of CD16A V158 (human) (P08637 17-208 F176V limits assumed): as the sequence (P08637 17-208 limits assumed) above, with F160V counted along it

binding relative to wild-type Fc (fold) (CD16A F158 (human)) | binding relative to wild-type Fc (fold) (CD32B (FcγRII-B)) | binding relative to wild-type Fc (fold) (CD16A V158 (human)) | koff (HER-2) [s⁻¹] | kon (HER-2) [M⁻¹ s⁻¹] | Substance
3.12 | 1.05 | – | – | – | Fc variant F243I R292P Y300L V305I P396L (from UniProt P01857 99-330)
2.3 | 0.32 | 6.69 | – | – | Fc variant F243L R292P P300L (from UniProt P0DOX5 228-449)
1.37 | 0.37 | 1.14 | – | – | Fc variant V284M R292P K370N (from UniProt P01857 99-330)
– | – | – | 6.3e-06 | 110000 | ch4D5 (antibody)
